Reference: the Human Domainome abundance scans (Beltran et al. 2025)
± gives the uncertainty stated by the source.

B1: POU domain, class 2, transcription factor 3, residues 186 to 260; numbered along this chain, Q9UKI9 (parent)
chain: SDLEELEKFAKTFKQRRIKLGFTQGDVGLAMGKLYGNDFSQTTISRFEALNLSFKNMCKLKPLLEKWLNDAESSP
B2: Cold shock protein CspB, residues 1 to 66; numbered along this chain, P41016 (parent)
chain: MQRGKVKWFNNEKGYGFIEVEGGSDVFVHFTAIQGEGFKTLEEGQEVSFEIVQGNRGPQAANVVKL

Variants of: B1
Assay: abundance fitness (aPCA) (normalised: wild type 0, dead -1); higher = more abundant; growth selection in yeast, the domain comes from the species named
Conditions: Homo sapiens

Abundance fitness of substitutions, site by site:
E72: N -0.002 ± 0.06 | W -0.179 ± 0.041 | V -0.043 ± 0.04 | R -0.122 ± 0.032 | Y -0.186 ± 0.1 | Q -0.026 ± 0.055 | A -0.033 ± 0.045 | G -0.089 ± 0.031 | C -0.071 ± 0.049 | F -0.24 ± 0.065 | T -0.078 ± 0.055 | S -0.084 ± 0.042 | L -0.173 ± 0.036 | I -0.213 ± 0.11 | K -0.133 ± 0.049 | D -0.037 ± 0.058 | P -0.269 ± 0.058
D70: H -0.131 ± 0.15 | N -0.066 ± 0.12 | R -0.049 ± 0.031 | M -0.103 ± 0.058 | Y -0.021 ± 0.062 | I -0.02 ± 0.062 | G -0.006 ± 0.031 | C -0.201 ± 0.072 | F -0.059 ± 0.11 | A -0.059 ± 0.043 | E 0.027 ± 0.043 | K -0.046 ± 0.058 | P -0.405 ± 0.064 | S -0.063 ± 0.038 | Q 0.003 ± 0.054 | V -0.096 ± 0.036 | T 0.082 ± 0.064 | L -0.09 ± 0.04
P75: L 0.022 ± 0.07 | G 0.011 ± 0.049 | W -0.183 ± 0.12 | E -0.017 ± 0.074 | K -0.128 ± 0.15 | S -0.067 ± 0.071 | A 0.044 ± 0.066 | R -0.044 ± 0.053 | C -0.076 ± 0.15 | Q -0.086 ± 0.089 | H -0.044 ± 0.088 | M -0.059 ± 0.097 | F -0.185 ± 0.17
E65: P -0.58 ± 0.083 | R -0.197 ± 0.036 | W -0.211 ± 0.041 | N -0.047 ± 0.25 | V -0.095 ± 0.033 | T -0.133 ± 0.054 | Q -0.109 ± 0.057 | Y -0.215 ± 0.074 | M 0.043 ± 0.058 | S -0.096 ± 0.037
N69: F 0.061 ± 0.068 | K -0.125 ± 0.053 | I 0.018 ± 0.059 | P -0.326 ± 0.067 | M -0.008 ± 0.047 | Q 0.033 ± 0.052 | Y -0.081 ± 0.099 | S 0.006 ± 0.04 | D 0.026 ± 0.059 | H 0.083 ± 0.13 | G 0.042 ± 0.033 | T 0.033 ± 0.047 | A -0.029 ± 0.045 | L -0.068 ± 0.037 | W 0.014 ± 0.05 | V -0.028 ± 0.036 | E 0.002 ± 0.04
W67: Q -0.761 ± 0.1 | A -0.603 ± 0.058 | R -0.731 ± 0.054 | E -0.696 ± 0.073 | D -0.706 ± 0.16 | Y 0.005 ± 0.064 | C -0.282 ± 0.053 | M -0.306 ± 0.056 | H -0.44 ± 0.15 | I -0.419 ± 0.14 | S -0.741 ± 0.066 | T -0.612 ± 0.085 | F -0.004 ± 0.056 | G -0.804 ± 0.045 | N -0.909 ± 0.24 | L -0.246 ± 0.037
A71: K 0.022 ± 0.054 | Q 0.036 ± 0.054 | C -0.169 ± 0.073 | W -0.076 ± 0.039 | H 0.047 ± 0.066 | G -0.156 ± 0.033 | P -0.067 ± 0.067 | Y -0.271 ± 0.14 | R -0.025 ± 0.03 | I -0.074 ± 0.16 | E -0.01 ± 0.042 | N 0.093 ± 0.13 | D -0.322 ± 0.063 | V 0.01 ± 0.038 | L 0.017 ± 0.035 | T -0.005 ± 0.06 | M -0.017 ± 0.052 | S -0.059 ± 0.042
S73: A -0.012 ± 0.044 | H -0.017 ± 0.066 | D -0.003 ± 0.067 | W -0.173 ± 0.038 | P -0.077 ± 0.065 | T -0.049 ± 0.051 | G -0.023 ± 0.03 | M -0.088 ± 0.047 | K -0.06 ± 0.058 | E -0.04 ± 0.043 | Q -0.059 ± 0.047 | V -0.038 ± 0.039 | R -0.113 ± 0.031 | C -0.087 ± 0.057 | N 0.003 ± 0.061 | F -0.077 ± 0.059 | Y -0.121 ± 0.078 | L -0.078 ± 0.039
S74: K 0.036 ± 0.07 | F -0.08 ± 0.11 | I -0.033 ± 0.081 | R -0.038 ± 0.036 | C -0.009 ± 0.06 | H 0.058 ± 0.081 | T -0.034 ± 0.045 | Q -0.017 ± 0.055 | V 0.039 ± 0.033 | Y -0.107 ± 0.079 | G -0.084 ± 0.032 | M -0.131 ± 0.075 | D -0.065 ± 0.075 | W -0.059 ± 0.057 | E -0.172 ± 0.07 | L -0.119 ± 0.042
L68: M -0.109 ± 0.081 | D -0.733 ± 0.14 | R -0.626 ± 0.046 | P -0.749 ± 0.22 | Y -0.298 ± 0.074 | F -0.312 ± 0.12 | G -0.563 ± 0.041 | W -0.43 ± 0.049 | C -0.153 ± 0.052 | N -0.673 ± 0.13 | I 0.006 ± 0.093 | E -0.564 ± 0.07 | T -0.317 ± 0.068 | V -0.052 ± 0.037 | A -0.114 ± 0.043 | Q -0.311 ± 0.054 | S -0.285 ± 0.046 | K -0.809 ± 0.12 | H -0.358 ± 0.19
K66: H -0.104 ± 0.076 | T -0.007 ± 0.045 | Q -0.036 ± 0.057 | M -0.157 ± 0.059 | I -0.142 ± 0.13 | V -0.066 ± 0.035 | G -0.038 ± 0.03 | C -0.063 ± 0.056 | S -0.147 ± 0.041 | E -0.061 ± 0.041 | N -0.019 ± 0.084 | W -0.161 ± 0.043 | F -0.248 ± 0.11 | R -0.024 ± 0.032 | P -0.544 ± 0.08 | Y -0.132 ± 0.1 | A -0.055 ± 0.035 | D 0.018 ± 0.051

Variants of: B2
Assay: as above
Conditions: Bacillus caldolyticus

Abundance fitness, by site and new letter:
R3: W -0.117 ± 0.041 | E -0.019 ± 0.041 | D -0.023 ± 0.069 | S -0.039 ± 0.031 | K -0.046 ± 0.055 | G -0.004 ± 0.031 | Q -0.021 ± 0.041 | T -0.024 ± 0.059 | F -0.003 ± 0.062 | C -0.076 ± 0.059 | V -0.013 ± 0.034 | Y 0.027 ± 0.065 | A -0.032 ± 0.034 | M 0.019 ± 0.051 | I -0.025 ± 0.081 | N -0.061 ± 0.067
K7: S -0.033 ± 0.026 | L -0.058 ± 0.027 | A -0.002 ± 0.03 | E -0.225 ± 0.055 | F -0.3 ± 0.038 | W -0.49 ± 0.057 | D -0.199 ± 0.048 | V -0.034 ± 0.028 | N -0.016 ± 0.04 | I 0.02 ± 0.052 | P -0.817 ± 0.057 | H -0.088 ± 0.046 | R -0.045 ± 0.034 | C -0.003 ± 0.035 | Q -0.07 ± 0.051 | T -0.052 ± 0.032 | G -0.106 ± 0.031 | M -0.072 ± 0.049 | Y -0.316 ± 0.042
F9: N -0.854 ± 0.11 | V -0.239 ± 0.039 | M -0.233 ± 0.045 | I -0.272 ± 0.045 | R -0.583 ± 0.03 | S -0.408 ± 0.028 | G -0.939 ± 0.09 | C -0.35 ± 0.038 | E -0.827 ± 0.088 | P -0.956 ± 0.069 | A -0.303 ± 0.037 | Y -0.119 ± 0.061 | D -0.881 ± 0.11 | K -0.389 ± 0.047 | T -0.306 ± 0.038 | H -0.567 ± 0.057 | Q -0.854 ± 0.073 | W -0.092 ± 0.043
V6: C -0.058 ± 0.059 | E -1.02 ± 0.091 | W -0.756 ± 0.058 | I -0.017 ± 0.04 | A -0.088 ± 0.035 | G -0.452 ± 0.026 | D -1.09 ± 0.11 | P -0.801 ± 0.081 | M -0.104 ± 0.059 | Q -0.824 ± 0.066 | T -0.002 ± 0.048 | H -0.863 ± 0.084 | S -0.324 ± 0.036 | F -0.622 ± 0.051 | L -0.158 ± 0.03 | R -0.971 ± 0.052
K5: V -0.03 ± 0.039 | D -0.156 ± 0.082 | A -0.042 ± 0.042 | Y -0.072 ± 0.061 | F -0.008 ± 0.061 | I -0.037 ± 0.05 | P -0.22 ± 0.041 | Q -0.056 ± 0.045 | N -0.029 ± 0.063 | E -0.065 ± 0.056 | G -0.222 ± 0.033 | H 0.005 ± 0.065 | S -0.027 ± 0.034 | C -0.003 ± 0.049 | M -0.069 ± 0.039 | R -0.035 ± 0.026 | W -0.052 ± 0.03
M1: K -0.1 ± 0.069 | T -0.03 ± 0.057 | R -0.096 ± 0.047 | D -0.086 ± 0.085 | G -0.064 ± 0.05 | S -0.049 ± 0.049 | L -0.044 ± 0.044 | I -0.006 ± 0.075 | H 0.016 ± 0.18 | E 0.008 ± 0.053 | W -0.086 ± 0.072 | C -0.102 ± 0.1 | Y 0.027 ± 0.15 | Q -0.021 ± 0.2 | F -0.025 ± 0.065 | A -0.046 ± 0.047
N10: A -0.047 ± 0.034 | I -0.023 ± 0.074 | K -0.038 ± 0.056 | Y -0.214 ± 0.062 | R -0.031 ± 0.028 | P -0.792 ± 0.053 | T -0.118 ± 0.051 | Q -0.025 ± 0.049 | E -0.079 ± 0.051 | M -0.083 ± 0.053 | D -0.086 ± 0.061 | S 0.01 ± 0.034 | F -0.132 ± 0.061 | W -0.122 ± 0.037 | C -0.027 ± 0.048 | L -0.069 ± 0.032
W8: R -0.075 ± 0.42 | C -0.046 ± 0.12 | G -0.304 ± 0.2
Q2: C 0.027 ± 0.061 | I 0.028 ± 0.078 | F 0.048 ± 0.069 | S -0.034 ± 0.035 | E 0.011 ± 0.067 | R -0.006 ± 0.038 | G -0.043 ± 0.039 | N -0.026 ± 0.12 | W 0.001 ± 0.051 | P -0.206 ± 0.038 | H 0.027 ± 0.083 | T 0.029 ± 0.056 | A -0.003 ± 0.046 | M 0.051 ± 0.066 | Y 0.003 ± 0.051 | V 0.018 ± 0.039 | D -0.036 ± 0.073
G4: Y -0.81 ± 0.041 | S -0.109 ± 0.021 | T -0.77 ± 0.039 | Q -0.428 ± 0.035 | A -0.117 ± 0.025 | E -0.717 ± 0.048 | C -0.905 ± 0.042 | W -1.05 ± 0.067 | P -0.571 ± 0.035 | M -0.997 ± 0.066 | N -0.368 ± 0.029 | D -0.891 ± 0.038 | H -0.409 ± 0.029 | R -0.537 ± 0.024 | F -0.866 ± 0.035 | K -0.654 ± 0.041
